This series has as its target Transferrin receptor (TfR, TFRC) (UniProt P02786 SEQ:89-760). Nature of the series: SPR; value only in figure, stated to be in similar range to TR14; Biacore T100, biotinylated aptamer on SA chip, 30 mM Tris-HCl pH 7.5, 150 mM NaCl, 5 mM MgCl2. The following applies: SELEX was against the extracellular domain; chain copies: 2; label: biotin (SPR), Cy3 (cell imaging). The method, then: The kinetics of TR14 S1-3 were analysed by surface plasmon resonance (SPR) technology. The Biacore T100 (GE Healthcare, Uppsala, Sweden) was used to monitor label-free the aptamer-transferrin receptor interactions in real time. Biotinylated aptamers were coupled to a streptavidin-coated Biocore chip (SensorChip SA, BR-1003-98, General Electric Company) by an injection in binding buffer at concentration of 25 μg/mL (30 mM Tris-HCl, pH 7.5, 150 mM NaCl, 5 mM MgCl2) at 10 uL/min. The RNA was refolded by heating to 65° C. followed by cooling to 37° C. before immobilization. To measure binding kinetics, five concentrations of purified transferrin receptor protein were injected at a flow rate of 10 uL per minute. After binding, the surface was regenerated by injecting 50 mM NaOH at flow rate of 15 μL per minutes for 20 seconds. Data from the control surface were subtracted. BlAevaluation software (GE Healthcare) was used for analysis. The binding data were fit to a 1:1 binding with a mass transfer model to calculate kinetic parameters.

Transferrin receptor (TfR, TFRC), sequence (P02786 89-760): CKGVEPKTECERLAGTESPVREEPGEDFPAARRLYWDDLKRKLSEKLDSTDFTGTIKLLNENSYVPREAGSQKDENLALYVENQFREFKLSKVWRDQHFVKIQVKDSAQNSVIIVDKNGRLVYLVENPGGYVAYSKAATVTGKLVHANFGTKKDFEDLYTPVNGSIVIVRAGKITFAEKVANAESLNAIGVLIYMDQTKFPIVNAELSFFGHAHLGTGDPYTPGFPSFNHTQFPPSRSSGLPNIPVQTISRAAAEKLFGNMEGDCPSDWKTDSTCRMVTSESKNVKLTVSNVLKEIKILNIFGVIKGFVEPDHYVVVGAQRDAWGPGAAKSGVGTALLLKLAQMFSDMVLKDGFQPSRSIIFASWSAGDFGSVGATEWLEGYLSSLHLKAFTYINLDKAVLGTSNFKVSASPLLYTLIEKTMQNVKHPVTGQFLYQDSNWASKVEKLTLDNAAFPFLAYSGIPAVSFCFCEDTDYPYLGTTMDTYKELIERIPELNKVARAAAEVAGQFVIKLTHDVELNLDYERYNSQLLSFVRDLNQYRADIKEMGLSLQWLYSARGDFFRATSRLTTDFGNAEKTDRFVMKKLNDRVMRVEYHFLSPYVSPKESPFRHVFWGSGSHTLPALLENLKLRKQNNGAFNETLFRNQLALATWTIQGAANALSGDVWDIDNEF

B1: TR14 S1-3 (22-mer) (ssRNA)
RNA: UUUAUUCACAUUUUUGAAUUGA
modifications: 2'-F (library of 2'F RNAs; positions not stated)
Consider B1, for which the binding result is on record as “binds”.

For the origin of these results see patent US20200172905, “RNA APTAMERS AGAINST TRANSFERRIN RECEPTOR (TFR)” (CITY OF HOPE, published 2020).
